The record followed here is patent US20120040375A1 (NATIONAL UNIVERSITY CORPORATION HOKKAIDO UNIVERSITY, published 2012).

Experiment [1] deals with T1, biotin-labeled T-47D culture supernatant (MUC1) (human, UniProt P15941 24-1097, limits assumed, biotin-labeled with Sulfo-NHS-Biotin).
T1 construct: The whole concentrated supernatant was biotinylated and put on the chip
The experiment can be described thus: SPR, Biacore, biotin-labeled T-47D culture supernatant on sensor chip SA.

For another experiment, the target named is T2, Biotin-Tn(DT*R)-100 (N-terminal Biotin-PEG-linker; Thr(GalNAcα) in each Asp-Thr-Arg (5 sites); C-terminal amide (NH2)).
T2 construct: also called Compound No. 21; Compound 21
The experiment is described as follows: SPR, Biacore T100, Biotin-Tn(DT*R)-100 on sensor chip SA.

T2 sequence (peptide, as listed by the source limits assumed): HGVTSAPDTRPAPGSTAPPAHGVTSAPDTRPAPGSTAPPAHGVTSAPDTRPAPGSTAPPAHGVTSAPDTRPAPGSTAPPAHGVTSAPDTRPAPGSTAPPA
T1 sequence (P15941 24-1097 limits assumed): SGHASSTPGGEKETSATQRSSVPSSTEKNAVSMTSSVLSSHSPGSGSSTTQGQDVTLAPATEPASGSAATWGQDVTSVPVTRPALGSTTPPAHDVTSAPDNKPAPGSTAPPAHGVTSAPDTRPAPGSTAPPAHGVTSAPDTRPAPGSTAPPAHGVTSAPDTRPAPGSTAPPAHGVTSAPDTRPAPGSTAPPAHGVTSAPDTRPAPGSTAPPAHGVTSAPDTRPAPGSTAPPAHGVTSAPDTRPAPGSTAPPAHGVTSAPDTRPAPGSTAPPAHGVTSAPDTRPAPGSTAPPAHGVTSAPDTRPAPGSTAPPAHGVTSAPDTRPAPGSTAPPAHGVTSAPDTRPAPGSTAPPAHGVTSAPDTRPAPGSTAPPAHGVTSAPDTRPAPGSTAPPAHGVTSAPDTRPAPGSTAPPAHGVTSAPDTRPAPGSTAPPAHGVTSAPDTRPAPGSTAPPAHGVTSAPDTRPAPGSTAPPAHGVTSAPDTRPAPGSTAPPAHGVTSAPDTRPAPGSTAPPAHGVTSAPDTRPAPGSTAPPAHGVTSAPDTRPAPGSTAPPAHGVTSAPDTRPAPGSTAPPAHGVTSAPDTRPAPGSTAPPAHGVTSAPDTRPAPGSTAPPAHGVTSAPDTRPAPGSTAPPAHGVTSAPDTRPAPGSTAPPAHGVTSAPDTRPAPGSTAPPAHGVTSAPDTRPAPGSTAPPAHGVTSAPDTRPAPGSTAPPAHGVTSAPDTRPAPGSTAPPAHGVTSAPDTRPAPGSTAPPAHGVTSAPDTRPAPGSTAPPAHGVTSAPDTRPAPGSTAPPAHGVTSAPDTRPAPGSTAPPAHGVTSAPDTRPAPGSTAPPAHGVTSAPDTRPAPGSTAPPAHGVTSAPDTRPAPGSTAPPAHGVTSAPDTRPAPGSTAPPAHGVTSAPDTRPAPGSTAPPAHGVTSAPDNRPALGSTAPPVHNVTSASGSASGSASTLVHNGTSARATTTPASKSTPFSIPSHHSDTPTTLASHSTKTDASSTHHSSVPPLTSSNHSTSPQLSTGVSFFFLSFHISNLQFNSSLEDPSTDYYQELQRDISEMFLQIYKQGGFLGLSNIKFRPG

B1: PankoMab (antibody, V domains shown)
VH: EVQLVESGGGLVQPGGSMRLSCVASGFPFSNYWMNWVRQAPGKGLEWVGEIRLKSNNYTTHYAESVKGRFTISRDDSKNSLYLQMNSLKTEDTAVYYCTRHYYFDYWGQGTLVTVSS
VL: DIVMTQSPLSNPVTPGEPASISCRSSKSLLHSNGITYFFWYLQKPGQSPQLLIYQMSNLASGVPDRFSGSGSGTDFTLRISRVEAEDVGVYYCAQNLELPPTFGQGTKVEIKR
In experiment [1], B1 yielded a Kd of 100 nM, a koff of 0.045 s⁻¹ and a kon of 440000 M⁻¹ s⁻¹. For the same molecule, in the experiment with Biotin-Tn(DT*R)-100, binding was put at a Kd of 1500 nM, the koff was found to be 0.19 s⁻¹ and the kon came to 120000 M⁻¹ s⁻¹.

In general, Kd refers to the constant that tells how readily two partners part at equilibrium. High values mean a looser complex, low ones a tighter complex. The koff is the first-order rate constant of dissociation. Read a high koff as a short-lived complex. For orientation: kon means the second-order rate constant of association.
